T1: human CEACAM5 expressed on the surface of tumor cells (human, UniProt P06731 35-685)
T1 sequence: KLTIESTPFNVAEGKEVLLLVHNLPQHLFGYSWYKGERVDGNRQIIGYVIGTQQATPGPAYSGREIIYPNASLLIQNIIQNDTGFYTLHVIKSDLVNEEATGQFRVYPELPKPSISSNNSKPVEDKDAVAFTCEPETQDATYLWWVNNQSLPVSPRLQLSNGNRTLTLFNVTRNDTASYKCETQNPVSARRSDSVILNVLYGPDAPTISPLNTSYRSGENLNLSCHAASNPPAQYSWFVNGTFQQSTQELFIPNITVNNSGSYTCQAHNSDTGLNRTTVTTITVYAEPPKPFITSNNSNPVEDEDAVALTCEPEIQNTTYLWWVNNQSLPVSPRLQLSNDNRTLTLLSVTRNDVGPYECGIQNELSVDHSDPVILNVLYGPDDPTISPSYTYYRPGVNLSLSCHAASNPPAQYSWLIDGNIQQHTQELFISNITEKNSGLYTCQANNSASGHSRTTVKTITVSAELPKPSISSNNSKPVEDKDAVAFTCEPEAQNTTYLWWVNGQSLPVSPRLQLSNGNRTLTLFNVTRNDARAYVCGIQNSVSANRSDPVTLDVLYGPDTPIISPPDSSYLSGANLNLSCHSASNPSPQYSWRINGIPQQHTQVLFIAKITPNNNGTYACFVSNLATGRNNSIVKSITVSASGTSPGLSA

T2: hCEACAM5, human CEACAM5 ECD (35-685) (human, UniProt P06731 35-685)
T2 construct: produced in HEK293; also called human CEACAM5 protein; human CEACAM5 extracellular domain
T2 sequence: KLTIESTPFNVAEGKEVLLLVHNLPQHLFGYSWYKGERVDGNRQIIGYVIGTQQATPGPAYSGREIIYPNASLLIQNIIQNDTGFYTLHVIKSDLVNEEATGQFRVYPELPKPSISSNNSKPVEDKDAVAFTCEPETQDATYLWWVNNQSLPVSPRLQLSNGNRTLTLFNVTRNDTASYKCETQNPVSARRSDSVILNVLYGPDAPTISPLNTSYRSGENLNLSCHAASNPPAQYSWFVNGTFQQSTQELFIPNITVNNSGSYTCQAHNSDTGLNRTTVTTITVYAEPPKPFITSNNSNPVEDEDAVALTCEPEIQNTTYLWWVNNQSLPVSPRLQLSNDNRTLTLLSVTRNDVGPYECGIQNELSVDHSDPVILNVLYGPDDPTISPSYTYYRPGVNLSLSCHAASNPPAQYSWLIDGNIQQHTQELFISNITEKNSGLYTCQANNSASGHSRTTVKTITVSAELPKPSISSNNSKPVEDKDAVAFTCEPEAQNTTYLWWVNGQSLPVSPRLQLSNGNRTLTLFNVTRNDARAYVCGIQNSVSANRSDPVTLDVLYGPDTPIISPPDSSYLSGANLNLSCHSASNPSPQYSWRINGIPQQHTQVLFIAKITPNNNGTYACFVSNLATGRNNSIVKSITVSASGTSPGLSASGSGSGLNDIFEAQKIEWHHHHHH

T3: cCEACAM5, M. fascicularis CEACAM5 ECD (35-688) (Macaca fascicularis)
T3 construct: ECD followed by a 24 amino acid extension containing a His-Tag; also called cynomolgus CEACAM5; monkey CEACAM5
T3 chain: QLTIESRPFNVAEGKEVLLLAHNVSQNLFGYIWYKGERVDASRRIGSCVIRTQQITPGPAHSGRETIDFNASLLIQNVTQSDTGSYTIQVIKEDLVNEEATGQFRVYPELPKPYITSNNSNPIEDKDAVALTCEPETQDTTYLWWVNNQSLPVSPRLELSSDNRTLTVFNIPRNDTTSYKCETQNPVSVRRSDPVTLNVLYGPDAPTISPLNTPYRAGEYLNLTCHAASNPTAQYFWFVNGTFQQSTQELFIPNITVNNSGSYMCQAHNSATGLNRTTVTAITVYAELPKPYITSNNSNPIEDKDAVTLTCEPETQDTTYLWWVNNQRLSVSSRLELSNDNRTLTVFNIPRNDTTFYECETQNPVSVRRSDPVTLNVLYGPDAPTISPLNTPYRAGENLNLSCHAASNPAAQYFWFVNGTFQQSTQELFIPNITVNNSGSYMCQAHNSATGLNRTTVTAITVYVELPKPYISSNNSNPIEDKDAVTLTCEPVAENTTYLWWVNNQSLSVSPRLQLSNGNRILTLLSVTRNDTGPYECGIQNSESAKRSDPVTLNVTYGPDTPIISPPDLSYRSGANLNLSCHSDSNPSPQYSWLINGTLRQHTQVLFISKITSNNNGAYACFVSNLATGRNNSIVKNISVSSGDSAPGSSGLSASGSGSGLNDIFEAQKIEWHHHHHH


Legend:
[1] = molecular target: T1, human CEACAM5 expressed on the surface …; assay: cell-based or functional assay
[2] = molecular target: T2, hCEACAM5, human CEACAM5 ECD (35-685); assay: ELISA, chimeric mAb
[3] = molecular target: T3, cCEACAM5, M. fascicularis CEACAM5 ECD …; assay: ELISA, chimeric mAb
[4] = molecular target: T2, hCEACAM5, human CEACAM5 ECD (35-685); assay: ELISA, coated CEACAM5
Protocol: (§1) All CEACAM5-specific mAbs were assessed for their ability to bind human and primate CEACAM5 protein by ELISA. Plates were coated with human or primate CEACAM5 protein, anti-hCEACAM5 mAbs were added to the plate and detected with rabbit anti-mouse IgG conjugated with horseradish peroxidase (Sigma; # A9044). The antibody binding was visualized by adding TMB-H2O2 buffer and read at a wavelength of 450 nm.

[5] = molecular target: T3, cCEACAM5, M. fascicularis CEACAM5 ECD …; assay: ELISA, coated CEACAM5
Protocol: as §1

[6] = molecular target: T1, human CEACAM5 expressed on the surface …; assay: flow cytometry on CR-IGR-034P primary colon tumor cells
Protocol: (§2) Advanced human primary colon tumor CR-IGR-034P (Julien et al., Clin Cancer Res Oct. 1, 2012 18:5314-5328) was obtained from Patient-derived xenograft in mice. Tumor CR-IGR-034P was enzymatically dissociated using collagenase Type IV (Invitrogen; #17104-019) and deoxyribonuclease I (Invitrogen; #18047-019) for 1 h at […], Cell viability was estimated by Viacount application using Guava® easyCyte™ 8HT Flow Cytometry System. […] 100 μL/well of goat anti-mouse IgG conjugated with Alexa647 (Invitrogen; # A2135) or goat anti-human IgG conjugated with Alexa488 (Invitrogen; # A11013) was added for 45 min at 4° C. and washed three times with PBS 1% BSA. The antibody binding was evaluated after centrifugation and resuspension of cells by adding 200 pliwell PBS 1% BSA and read using Guava® easyCyte™ 8HT Flow Cytometry System. Apparent KD and EC50 values were estimated using BIOST@T-BINDING and BIOST@T-SPEED softwares, respectively.

[7] = molecular target: T1, human CEACAM5 expressed on the surface …; assay: apparent KD, flow cytometry on CR-IGR-034P primary colon tumor cells
Protocol: as §2

Row | Binder | EC50 [2] | EC50 [3] | Cytotoxic activity IC50 (nM) on MKN45 cells [1] | further results
1 | MAb5-SPDB-DM4 (other, maytansinoid DM4 conjugated through SPDB linker; attachment residues not stated) VH: ELQLVESGGVLVKPGGSLKLSCAASGFAFSSYDMSWVRQTPEKRLEWVTYINSGGGITYYPDTVKGRFTISRDNARNTLYLQMSSLKSEDTAIYYCTAHYFGSSGPFAYWGQGTLVTVSA VL: DIQMTQSPASLSASVGETVTITCRASENIYSYLAWYQQKQGKSPQLLVYNAKTLTEGVPSRFSGSGSGTQFSLKINSLQPEDFGSYYCQHHYGTPFTFGSGTKLEIK | – | – | 0.24 nM | –
2 | MAb4-SPDB-DM4 (other, maytansinoid DM4 conjugated through SPDB linker; attachment residues not stated) VH: EVQLVESGGGLVKPGGSLKLSCAASGFTFSSYDMSWVRQTPEKRLEWVAFISSYGGRTYYADTVKGRFTISRDNAKNTLYLQMSSLKSEDTAMFYCAAHYFGTSGPFAYWGQGTLVTVSA VL: DIQMTQSPASLSASVGETVTITCRASENIYSYFAWYQQKQGKSPQLLVYNAKILAEGVPSRFSGSGSGTQFSLKINSLQPEDFGTYYCQHHYGIPFTFGSGTKLELK | – | – | 0.96 nM | –
3 | MAb2-SPDB-DM4 (other, maytansinoid DM4 conjugated through SPDB linker; attachment residues not stated) VH: EVQLQESGGVLVKPGGSLKLSCAASGFVFSSYDMSWVRQTPEKRLEWVAYISSGGGITYFPDTVQGRFTVSRDNAKNTLYLQMNSLKSEDTAIYYCAAHYFGSSGPFAYWGQGTLVTVSA VL: DIQMTQSPASLSASVGETVTITCRASENIFSYLAWYQQKQGKSPQLLVYNTKTLAEGVPSRFSGSGSGTQFSLKINSLQPEDFGSYYCQHHYGTPFTFGSGTKLEIK | – | – | 0.14 nM | –
4 | antibody MAb2 (antibody, mouse IgG1, V domains shown, Murine IgG1, kappa; Rows are tied to the label as printed) VH: EVQLQESGGVLVKPGGSLKLSCAASGFVFSSYDMSWVRQTPEKRLEWVAYISSGGGITYFPDTVQGRFTVSRDNAKNTLYLQMNSLKSEDTAIYYCAAHYFGSSGPFAYWGQGTLVTVSA VL: DIQMTQSPASLSASVGETVTITCRASENIFSYLAWYQQKQGKSPQLLVYNTKTLAEGVPSRFSGSGSGTQFSLKINSLQPEDFGSYYCQHHYGTPFTFGSGTKLEIK | – | – | – | EC50 [4]: 0.14 nM; EC50 [5]: 0.07 nM; Ratio c/h (EC50 on cCEACAM5 against EC50 on hCEACAM5) [5]: 0.5; EC50 [6]: 0.53 nM; Kd [7]: 0.38 nM
5 | MAb1-SPDB-DM4 (other, maytansinoid DM4 conjugated through SPDB linker; attachment residues not stated) VH: EVMLVESGGGLVKPGGSLKLSCAASGFTFSSYAMSWVRQTPEKRLEWVATISSGGSYIYYLDSVKGRFTISRDNAKNTLYLQMSSLRSEDTAMYYCARPAYYGNPAMDYWGQGTSVTVSS VL: DILMTQSQKFMSTSVGDRVSVTCKASQNVGTNVAWYQQKPGQSPKPLIYSASYRYSGVPDRFTGSGSGTDFTLTISNVQSEDLAEYFCQQYNSYPLYTFGGGTKLEIK | – | – | 0.89 nM | –
6 | MAb3-SPDB-DM4 (other, maytansinoid DM4 conjugated through SPDB linker; attachment residues not stated) VH: EVKLVESGGGLVKPGGSLTLPCAASGFTFSRYAMSWVRQTPEKRLEWVASISSGGDTYYPDSVKGRFTVSRDNARNILFLQMSSLRSEDTGMYYCARVNYYDSSFLDWWGQGTTLTVSS VL: DIVMTQSQRFMSTLEGDRVSVTCKASQNVGTNVAWYQQKPGQSPKALIYSASYRYSGVPDRFTGSGSGTDFTLTISNVQSEDLAEYFCQQYNNYPLYTFGGGTKLEIK | – | – | 0.53 nM | –

More lines, main results first:

Row | EC50 [2] | EC50 [3] | Binder | Cytotoxic activity IC50 (nM) on MKN45 cells [1] | further results
7 | 0.18 nM | 0.13 nM | chMAb5 (antibody, human IgG1, kappa, V domains shown, Chimeric, human IgG1 / Ckappa) VH: ELQLVESGGVLVKPGGSLKLSCAASGFAFSSYDMSWVRQTPEKRLEWVTYINSGGGITYYPDTVKGRFTISRDNARNTLYLQMSSLKSEDTAIYYCTAHYFGSSGPFAYWGQGTLVTVSA VL: DIQMTQSPASLSASVGETVTITCRASENIYSYLAWYQQKQGKSPQLLVYNAKTLTEGVPSRFSGSGSGTQFSLKINSLQPEDFGSYYCQHHYGTPFTFGSGTKLEIKR | – | –
8 | 0.51 nM | 1.57 nM | chMAb1 (antibody, human IgG1, kappa, V domains shown, Chimeric, human IgG1 / Ckappa) VH: EVMLVESGGGLVKPGGSLKLSCAASGFTFSSYAMSWVRQTPEKRLEWVATISSGGSYIYYLDSVKGRFTISRDNAKNTLYLQMSSLRSEDTAMYYCARPAYYGNPAMDYWGQGTSVTVSS VL: DILMTQSQKFMSTSVGDRVSVTCKASQNVGTNVAWYQQKPGQSPKPLIYSASYRYSGVPDRFTGSGSGTDFTLTISNVQSEDLAEYFCQQYNSYPLYTFGGGTKLEIKR | – | –
9 | 0.11 nM | 0.15 nM | chMab2K52R (antibody, human IgG1, kappa, V domains shown, Chimeric MAb2 with K52R in CDR2-L) VH: EVQLQESGGVLVKPGGSLKLSCAASGFVFSSYDMSWVRQTPEKRLEWVAYISSGGGITYFPDTVQGRFTVSRDNAKNTLYLQMNSLKSEDTAIYYCAAHYFGSSGPFAYWGQGTLVTVSA VL: DIQMTQSPASLSASVGETVTITCRASENIFSYLAWYQQKQGKSPQLLVYNTRTLAEGVPSRFSGSGSGTQFSLKINSLQPEDFGSYYCQHHYGTPFTFGSGTKLEIKR | – | –
10 | 0.14 nM | 0.12 nM | chMAb4 (antibody, human IgG1, kappa, V domains shown, Chimeric, human IgG1 / Ckappa) VH: EVQLVESGGGLVKPGGSLKLSCAASGFTFSSYDMSWVRQTPEKRLEWVAFISSYGGRTYYADTVKGRFTISRDNAKNTLYLQMSSLKSEDTAMFYCAAHYFGTSGPFAYWGQGTLVTVSA VL: DIQMTQSPASLSASVGETVTITCRASENIYSYFAWYQQKQGKSPQLLVYNAKILAEGVPSRFSGSGSGTQFSLKINSLQPEDFGTYYCQHHYGIPFTFGSGTKLELKR | – | –

Source: patent publication US20220340682A1 (Sanofi, published 2022)
